Measurements: patent US20240035012A1

Experiments:
[1] = biological target: prefusion stabilized trimeric SARS-CoV-2 spike protein ectodomain (SARS-CoV-2) (UniProt P0DTC2)
[2] = biological target: prefusion stabilized trimeric SARS-CoV-2 spike protein ectodomain (SARS-CoV-2) (UniProt P0DTC2); remark: listed apart in the source

ACE2-short-3HB (receptor)
IC50 [1]: 2.9 nM | Kd [2]: 3.9 nM
